Patent publication US20060263334A1

Tests used:
[1] = target: MA scTCR (single chain Vα23.1Jα14.3-linker-Vβ8.3DβJβ1.2-Cβ2 fused through a thrombin-site linker to the murine CD3 ξ chain), displayed on transfected RBL or BWZ cells (human; mouse); assay: flow cytometry, 293H cells transfected with scTCR; bar marked **. Reference bars: 293H 1.1, Control vector 1.4
[2] = target: scTCR-AGD-CD4TM-hζ (human) (UniProt P01730); assay: flow cytometry, 293H cells transfected with scTCR-AGD-CD4TM-hζ; bar marked **. Reference bars: 293H 1.1, Control vector 1.4
scTCR-CD4TM-hζ (human) = scTCR-CD4TM-hζ (human) (UniProt P01730); assay: flow cytometry, 293H cells transfected with scTCR-CD4TM-hζ. Reference bars: 293H 1.1, Control vector 1.4

Fold increase in MFI [1]: 4.4 fold | Fold increase in MFI [2]: 6.5 fold | Fold increase in MFI (scTCR-CD4TM-hζ (human)): 2.1 fold
Substance: anti-TCR βF1 antibody
